System: MS2 coat protein
Assay: apparent KD of MS2 coat protein; designed switch direction (-1 OFF switch, 1 ON switch): 1; higher = weaker reporter binding
How it was run: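 Normalised cluster fluorescence was curve-fitted, and each design's median over clusters is its apparent KD. Before this, SNAP-549-labelled MS2 coat protein was titrated from 0.7 or 1.5 nM, doubling to 3 µM, over RNA switches transcribed on Illumina chips by stalled E. coli RNA polymerase. Titrations had no input, 200 uM small-molecule ligand, or an oligonucleotide input, and steps lasted 0.8–1.5 h (lowest) to 10–20 min (highest).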

[1] = Eterna round: R95, input ligand: FMN 200 uM
[2] = Eterna round: R95, input ligand: microRNA oligo, concentration not stated
[3] = Eterna round: R95, input ligand: none
[4] = input ligand: microRNA oligo, concentration not stated

| Sequence | apparent KD of MS2 coat protein [1] | apparent KD of MS2 coat protein [2] | apparent KD of MS2 coat protein [3] | apparent KD of MS2 coat protein (input ligand: FMN 200 uM) | apparent KD of MS2 coat protein [4] | apparent KD of MS2 coat protein (input ligand: none) |
| --- | --- | --- | --- | --- | --- | --- |
| CGUAGGUAGCUGGAGGAUAUUCGAGUGGUAACAUGAGGAUCACCCAUGUGGAUAGAGGAACAUGAGGAGAAGGCUAGCUGCCUGC [JL-ss2-3.20 JL mod] (puzzle: Same State 2) | 11.3 nM | 26.6 nM | 30.6 nM |  |  |  |
| CGUCCGGCCUGUGCUGGCCGGAAGCAUGUACAUGAGGAUCACCCAUGUUCAUGUGCAGGCUUUUUGCUCGUCUUGUG [salish99_mir208a_r3_006] (puzzle: Sensor for hsa-mir-208a) | 41.3 nM | 12.4 nM | 39.4 nM |  |  |  |
| CGUCCGGCCUGUGCUGGCCGGAAGCAUGUACAUGAGGAUCACCCAUGUUCUUGUGCAGGCUUUUUGCUCGUCUUGUG [salish99_mir208a_010] (puzzle: Sensor for hsa-mir-208a) | 24.9 nM | 14.7 nM | 22.2 nM |  |  |  |
| CGUCCGGCCUGUGCUGGCCGGUAGCUUGUACAUGAGGAUCACCCAUGUUCUUGUGCAGGCUUUUUGCUCGUCUUGUG [salish99_mir208a_016] (puzzle: Sensor for hsa-mir-208a) | 365 nM | 23.9 nM | 452 nM |  |  |  |
| CGUCCGGCCUGUGCUGGCCGGUGGCUUGUACAUGAGGAUCACCCAUGUUCUUGUGCUGGCUGUUUGCUCGUCUUGUG [salish99_mir208a_r3_021] (puzzle: Sensor for hsa-mir-208a) | 50.2 nM | 22.6 nM | 61.2 nM |  |  |  |
| CGUCGCUGUCGAGAGGAUAUGCGGUGGUGGACAUGAGGAUCACCCAUGUUAGCGAUAGCAUCACGGUAGAAGGCUCUUACGACUG [Soteed Omei mod 25] (puzzle: Same State 2) |  | 18.1 nM |  |  |  |  |
| CGUUCAUACUCAGGACGGAGAGUAGAGGAACAUGAGGAUCACCCAUGUAUGAGCUUUUUGCUCGUCAUGAACAGGAG [JR_SHM208a_Sub011] (puzzle: Sensor for hsa-mir-208a) | 103 nM | 72.2 nM | 117 nM |  |  |  |
| CUAUCUACAGGUGUCAGUGCUCGUCUUAUACAUGAGGAUCACCCAUGUUAUAGCCCGGUGCUUGCGCUGGGCUGAUU [JL ViennaUCT Tearor mod 4] (puzzle: Sensor for hsa-mir-208a) | 54.8 nM | 14.2 nM | 66.9 nM |  |  |  |
| CUCAAAACAAGUUGCAGUGUUCGUCUUUCACAUGAGGAUCACCCAUGUAAUAGCCCAGUGGAAGCGCUCGGGCCACC [Ditixe] (puzzle: Sensor for hsa-mir-208a) | 55.3 nM | 28.9 nM | 47.4 nM |  |  |  |
| CUCAAACAUGAGGAUCACCCAUGUGUUGUCAUGGGAGGAUAUCCCAGUUCGUUGUAGUCGGGAGAAGGCCUAUGUC [× ×•×ª×• ×ž×“×™× ×” × ×—×ª-13] (puzzle: Same State 1) |  | 54.9 nM |  |  |  |  |
| CUCACAUGGGUAGGAUAUCUAGGAUAUGGGAAAGACUAAGUCUGUAGGUCACCUAACCCAGAUGGAGAGAAGGACCCAACACUC [pwkr ssNG2 2FMN + F9.37] (Eterna round: R96, puzzle: Same State NG 2) |  |  |  | 32.4 nM | 7.81 nM | 9.82 nM |
| CUCGUAUCGGGAGGAUAUGGUGCCUUGUUGGUGCUAGAAGGUCCAACAUGAGGAUCACCCAUGUGCGAGUGGUUGAGAGACCGG [SS NG10LRO15] (Eterna round: R96, puzzle: Same State NG 1) |  |  |  | 336 nM | 230 nM | 399 nM |
| CUCGUAUCGGGAGGAUAUGGUGCCUUGUUGGUGCUAGAAGGUCCAACAUGAGGAUCACCCAUGUGCGAGUGGUUGAGAGACCUC [SS NG10LRO14] (Eterna round: R96, puzzle: Same State NG 1) |  |  |  | 708 nM | 506 nM | 1000 nM |
| CUGAGCAGUCAAGGAUAUCACGUCGAUUAGACGUGAGAAGGUGACCAAUACAUGAGGAUCACCCAUGUAAUACAUGAAGCUCAG [SSNG1/12-A2] (Eterna round: R96, puzzle: Same State NG 1) |  |  |  | 20.4 nM | 28.5 nM | 39.5 nM |
| CUGAGCGAUCUAGGAUAUCACGUCGUUUAGACGUGAGAAGGAGAUCAUAACAUGAGGAUCACCCAUGUAUUACAUGAAGCUCAG [SSNG1/6-A3] (Eterna round: R96, puzzle: Same State NG 1) |  |  |  | 14.9 nM | 16.9 nM | 19.1 nM |
| CUGAGCGAUUAAGGAUAUCACGUCGUUUAGACGUGAGAAGGUGAUCAUAACAUGAGGAUCACCCAUGUAUUACAUGAAGCUCAG [SSNG1/3-A3] (Eterna round: R96, puzzle: Same State NG 1) |  |  |  | 614 nM | 98.1 nM | 128 nM |
| CUGUAUCGCGGAGGAUAUGGGCUGAGACCAGGACAACCCUGGUCAACAUGAGGAUCACCCAUGUCCCAGAAGGCCGCGAUGCUA [Zazalaonor] (Eterna round: R96, puzzle: Same State NG 2) |  |  |  | 16.1 nM | 97.3 nM | 108 nM |
| CUUUUUAAUGCAGGAUAUGAUCAACAUGAGGAUCACCCAUGUGGCGUUGUGAGUAAGGAGAGUGAUCAGAAGGGCAUCUCCUCA [SS-NG2-LRO07] (Eterna round: R96, puzzle: Same State NG 2) |  |  |  | 57.5 nM | 54.5 nM | 45.8 nM |
| GACAAUCUAUCUGAGGAUAUCAUGAAGAAAACAUGAGGAUCACCCAUGUGCAGGAUAACUGCAAAUGAGAAGGCAGAUAGAUUGU [Mat - Same State 2 - Mod - D6] (puzzle: Same State 2) | 17.1 nM | 17.8 nM | 22.4 nM |  |  |  |
| GAGAGAGGGUGAGGAUAUGGAGUAAUAAUGAUACCAGAAGGCACAGACAUGAGGAUCACCCAUGUGGGAAUAAUCCAGAGAGAG [Parity 7 - Jieux - Same State NG 1] (Eterna round: R96, puzzle: Same State NG 1) |  |  |  | 506 nM | 177 nM | 264 nM |
| GAGAGAUGGCUAGGAUAUUCGGUGAUAAUGAUAGAAGAAGGAGCUGACAUGAGGAUCACCCAUGUGGGAAUAAUCCAGAGAGAG [Parity 19 - Jieux - Same State NG 1] (Eterna round: R96, puzzle: Same State NG 1) |  |  |  | 167 nM | 56.1 nM | 96.7 nM |
| GAGCCAGUCCGAGGAUAUUCAUAUUAAAUACAUGAGGAUCACCCAUGUAGGCUCAGAGAGCCUUGGGAGAAGGCGGACUGGCUC [Xeonanisa>>1] (Eterna round: R96, puzzle: Same State NG 2) |  |  |  | 24.9 nM | 63.6 nM | 113 nM |
| GAGCUCGUGUGAGGAUAUGCCGCCGUUUCGGCUGCAGAAGGUGCUACGUUACAUGAGGAUCACCCAUGUCUCUGUUGUUUCGUG [salish99_SSNG1_r04_958] (Eterna round: R96, puzzle: Same State NG 1) |  |  |  | 23.5 nM | 20.4 nM | 21.9 nM |

From the supplement of paper PMC9170038
